Laboratory results from patent US20180244725.

System: T1, R5 peptide
T1 sequence: SSKKSGSYSGSKGSKRRIL

JMJD6 (Auxenochlorella protothecoides)
enzymatic modification of R5 (Hydroxylation): resulted in no modifications

JMJD6 (Nannochloropsos gaditana)
enzymatic modification of R5 (Hydroxylation): resulted in no modifications

LIPT1
enzymatic modification of R5 (Lipidation): resulted in no modifications

Protein Kinase A (PKA) (NEB P6000S)
phosphorylation sites on R5 (LC-MS/MS): primary phosphorylation at Ser11, with very low levels of phosphorylation at Ser4, Ser7, and Ser1.6

THAOC_04424
enzymatic modification of R5 (Hydroxylation): resulted in no modifications

THAOC_24272
methylation of R5 (LC-MS, LC-MS/MS): the methylation occurs on all four lysine with no discernable preference or pattern

THAOC_27572
enzymatic modification of R5 (Hydroxylation): resulted in no modifications

THAOC_37500
methylation of R5 (LC-MS time course): A time course showing the incorporation of zero to 16 methyl groups into R5

Tyrosinase from mushrooms (Sigma T3824)
oxidation and polymerization of R5 (absorbance at 350 nm, SDS-PAGE): A time course was generated showing the production of oxidized R5 (FIGS. 6B-6C) and the subsequent spontaneous formation of R5 polymers
